Reference: patent publication US20200292534A1

How the values were obtained:
NLpoly11S [1] = target: T1, NLpoly11S; assay: luminescence complementation titration, one-site specific binding; conditions: chains peptide; modification not given
T1 chain: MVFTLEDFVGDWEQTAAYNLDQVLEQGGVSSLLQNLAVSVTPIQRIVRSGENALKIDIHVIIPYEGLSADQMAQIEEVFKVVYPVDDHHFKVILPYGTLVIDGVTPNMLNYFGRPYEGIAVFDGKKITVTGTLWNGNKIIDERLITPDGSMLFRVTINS

NLpoly11S [2] = target: T1, NLpoly11S; assay: luminescence complementation titration, one-site specific binding fit
[3] = substrate: CP Nluc; assay: cell-based or functional assay
NLpoly11S [4] = target: T1, NLpoly11S; assay: luminescence complementation titration (E. coli lysate NLpoly, synthetic NLpep), one site-specific binding fit
NLpoly 5P [5] = target: T2, NLpoly 5P; assay: luminescence complementation; conditions: chains peptide; modification not given
T2 chain: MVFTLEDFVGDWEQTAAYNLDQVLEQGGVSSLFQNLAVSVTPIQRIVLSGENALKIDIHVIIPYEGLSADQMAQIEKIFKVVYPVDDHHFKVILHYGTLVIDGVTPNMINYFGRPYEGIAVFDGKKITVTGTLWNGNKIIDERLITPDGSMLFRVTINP

VT = assay: luminescence complementation; conditions: chains peptide; modification not given
AA = assay: luminescence complementation; conditions: chains peptide; modification not given
VA = assay: luminescence complementation; conditions: chains peptide; modification not given
NLpoly 5P [6] = target: T2, NLpoly 5P; assay: luminescence complementation; HeLa lysate; conditions: chains peptide; modification not given
VTG = target: T3, VTG; assay: luminescence complementation; conditions: chains peptide; modification not given
T3 chain: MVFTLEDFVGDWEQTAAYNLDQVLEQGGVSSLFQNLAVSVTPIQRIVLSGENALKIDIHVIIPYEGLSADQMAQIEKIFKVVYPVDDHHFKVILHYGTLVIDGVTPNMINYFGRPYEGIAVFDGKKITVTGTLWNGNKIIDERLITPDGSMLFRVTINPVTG

GTA = target: T4, GTA; assay: luminescence complementation; conditions: chains peptide; modification not given
T4 chain: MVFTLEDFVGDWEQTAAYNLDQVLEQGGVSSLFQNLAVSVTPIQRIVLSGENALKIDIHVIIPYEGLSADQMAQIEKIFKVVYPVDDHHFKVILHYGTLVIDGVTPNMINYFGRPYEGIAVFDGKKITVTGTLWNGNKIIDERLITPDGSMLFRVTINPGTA

ATG = target: T5, ATG; assay: luminescence complementation; conditions: chains peptide; modification not given
T5 chain: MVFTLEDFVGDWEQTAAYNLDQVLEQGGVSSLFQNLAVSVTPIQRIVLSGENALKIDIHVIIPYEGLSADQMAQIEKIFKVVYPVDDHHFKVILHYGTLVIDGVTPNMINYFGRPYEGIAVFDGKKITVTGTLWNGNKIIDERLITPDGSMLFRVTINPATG

NLpoly11S [7] = target: T1, NLpoly11S; assay: luminescence complementation titration, one-site specific binding; conditions: chains peptide; modification not given
NLpoly11S [8] = target: T1, NLpoly11S; assay: as above; conditions: chains peptide; modification not given

Binder | Bmax (NLpoly11S [2]) | Kd (NLpoly11S [2]) [nM] | other results
VTGYRLFEKIL [NLpep128] |  |  | Kd (NLpoly11S [1]): 237 nM
VTGYRLFKKES (modifications not checked) [array2.3] | 56000 | 773 | 
VTGYRLFKEIL (modifications not checked) [array2.34] | 21900 | 4400 | 
VSGWALFKKIS (modifications not checked) [Ala-162] |  |  | inhibition of the luminescence generated by CP Nluc [3]: > 2 logs
VSGWRLFKKIS (modifications not checked) [NLpep86] |  |  | Kd (NLpoly11S [4]): < 1 nM; fold improved affinity over NLpolyWT:NLpepWT (NLpoly11S [4]): 10000 fold
VTGYRLFKEAL (modifications not checked) [array2.35] | 5550 | 5150 | 
VTGYRLFKKAL (modifications not checked) [array2.29] | 98600 | 276 | 
VTGYRLFQEIL (modifications not checked) [array2.43] | 9410 | 17200 | 
VTGYRLFEQEL (modifications not checked) [array2.51] | 46200 | 85000 | 
VTGYRLFEKES [NLpep101] |  |  | Kd (NLpoly11S [1]): 3120 nM
SGWRLFKKISN [NLpep81] |  |  | Kd (NLpoly 5P [5]): 110 nM; Kd (VT): 137 nM; Kd (AA): 115 nM; Kd (VA): 132 nM
VTGYRLFKQIS (modifications not checked) [array2.4] | 104000 | 746 | 
VTGYRLFEQAL (modifications not checked) [array2.50] | 17100 | 40400 | 
VTGYRLFEKIS [NLpep99] |  |  | Kd (NLpoly11S [1]): 266 nM
VTGYRLFKEEL (modifications not checked) [array2.36] | 1720 | 7780 | 
VSGWRLFKKISN [NLpep80] |  |  | Kd (NLpoly11S [4]): < 1 nM; fold improved affinity over NLpolyWT:NLpepWT (NLpoly11S [4]): 10000 fold; Kd (NLpoly 5P [6]): 1 nM
VTGYRLFQEAL (modifications not checked) [array2.44] | 4230 | 16000 | 
VTGYRLFQKAL (modifications not checked) [array2.38] | 72800 | 975 | 
VTGYRLFEKEL (modifications not checked) [array2.48] | 10900 | 2440 | 
VTGYRLFEEEL (modifications not checked) [array2.54] | 251000 | 68300 | 

Binder | Bmax (NLpoly11S [2]) | Kd (NLpoly11S [2]) [nM] | other results
VTGYRLFQQAL (modifications not checked) [array2.41] | 3470 | 3970 | 
VTGYRLFEQIL (modifications not checked) [array2.49] | 99200 | 124000 | 
VTGYRLFKQIL (modifications not checked) [array2.31] | 115000 | 2990 | 
VTGYRLFKKEL (modifications not checked) [array2.30] | 51100 | 671 | 
VTGYRLFKQAL (modifications not checked) [array2.32] | 34900 | 3560 | 
GWRLFKKISN [NLpep82] |  |  | Kd (VTG): 276 nM; Kd (GTA): 254 nM; Kd (NLpoly 5P [5]): 215 nM; Kd (ATG): 230 nM
VTGYRLFQKEL (modifications not checked) [array2.39] | 33100 | 2480 | 
VEGYRLFEKIS [NLpep104] |  |  | Kd (NLpoly11S [1]): 1740 nM
VTGYRLFEKAL (modifications not checked) [array2.47] | 34500 | 1810 | 
VTGYRLFKKIL (modifications not checked) [array2.28] | 141000 | 76.6 | 
VTGYRLFQEEL (modifications not checked) [array2.45] | 14300 | 35400 | 
VTGYRLFQQEL (modifications not checked) [array2.42] | 14200 | 19000 | 
NVTGYRLFKKISN [NLpep79] |  |  | Kd (NLpoly11S [1]): 20.3 nM; Kd (NLpoly11S [7]): 13.1 nM
NVSGWRLFKKISN [NLpep78] |  |  | Kd (NLpoly11S [1]): 2.39 nM; Kd (NLpoly11S [8]): 9.56 nM
VTGYRLFQQIL (modifications not checked) [array2.40] | 66300 | 122000 | 
VTGYRLFQKIL (modifications not checked) [array2.37] | 127000 | 362 | 
VTGYRLFKQEL (modifications not checked) [array2.33] | 8550 | 1950 | 
VTGYRLFEKIL (modifications not checked) [array2.46] | 219000 | 1920 | 
VSGWQLFKKIS (modifications not checked) [Gln-162] |  |  | inhibition of the luminescence generated by CP Nluc [3]: > 1 log
